The values that follow come from IntAct's records for PubMed 23353685.

Sequences and labels used below:
B1: Beta-arrestin-1 (Homo sapiens), P49407 (parent)
chain: MGDKGTRVFKKASPNGKLTVYLGKRDFVDHIDLVDPVDGVVLVDPEYLKERRVYVTLTCAFRYGREDLDVLGLTFRKDLFVANVQSFPPAPEDKKPLTRLQERLIKKLGEHAYPFTFEIPPNLPCSVTLQPGPEDTGKACGVDYEVKAFCAENLEEKIHKRNSVRLVIRKVQYAPERPGPQPTAETTRQFLMSDKPLHLEASLDKEIYYHGEPISVNVHVTNNTNKTVKKIKISVRQYADICLFNTAQYKCPVAMEEADDTVAPSSTFCKVYTLTPFLANNREKRGLALDGKLKHEDTNLASSTLLREGANREILGIIVSYKVKVKLVVSRGGLLGDLASSDVAVELPFTLMHPKPKEEPPHREVPENETPVDTNLIELDTNDDDIVFEDFARQRLKGMKDDKEEEEDGTGSPQLNNR

The variants in the assay derive from B1. The conditions noted are these: with gnas1_human GNAS.
With MGDKGTRVFKKASPNGKLTVYLGKRDFVDHIDKVDPVDGVVLVDPEYLKERRVYVTLTCAFRYGREDLDVLGLTFRKDLFVANVQSFPPAPEDKKPLTRLQERLIKKLGEHAYPFTFEIPPNLPCSVTLQPGPEDTGKACGVDYEVKAFCAENLEEKIHKRNSVRLVIRKVQYAPERPGPQPTAETTRQFLMSDKPLHLEASLDKEIYYHGEPISVNVHVTNNTNKTVKKIKISVRQYADICLFNTAQYKCPVAMEEADDTVAPSSTFCKVYTLTPFLANNREKRGLALDGKLKHEDTNLASSTLLREGANREILGIIVSYKVKVKLVVSRGGLLGDLASSDVAVELPFTLMHPKPKEEPPHREVPENETPVDTNLIELDTNDDDIVFEDFARQRLKGMKDDKEEEEDGTGSPQLNNR [L33K], the “effect of a mutation on the interaction” value was “decreasing interaction”.
